Laboratory results from paper PMC3092057.

Key:
Assay in all cases: EMSA
TIEG1(DBD) S384E/T445E = TIEG1(DBD) S384E/T445E (Homo sapiens, UniProt Q13118 363-480, S384E;T445E)
TIEG1(DBD) S384E = TIEG1(DBD) S384E (Homo sapiens, UniProt Q13118 363-480, S384E)
TIEG1(DBD) = TIEG1(DBD) (Homo sapiens, UniProt Q13118 363-480)
TIEG1(DBD) T445E = TIEG1(DBD) T445E (Homo sapiens, UniProt Q13118 363-480, T445E)
TIEG1(DBD) S384A = TIEG1(DBD) S384A (Homo sapiens, UniProt Q13118 363-480, S384A)
TIEG1(DBD) T445A = TIEG1(DBD) T445A (Homo sapiens, UniProt Q13118 363-480, T445A)
TIEG1(DBD) T445A, sequence (Q13118 363-480 T445A): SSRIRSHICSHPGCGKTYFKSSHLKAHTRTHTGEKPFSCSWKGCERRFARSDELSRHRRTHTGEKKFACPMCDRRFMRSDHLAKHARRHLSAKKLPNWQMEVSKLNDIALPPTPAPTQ

TIEG1(DBD) S384A/T445A = TIEG1(DBD) S384A/T445A (Homo sapiens, UniProt Q13118 363-480, S384A;T445A)
TIEG1(DBD) S384A/T445A, sequence (Q13118 363-480 S384A/T445A): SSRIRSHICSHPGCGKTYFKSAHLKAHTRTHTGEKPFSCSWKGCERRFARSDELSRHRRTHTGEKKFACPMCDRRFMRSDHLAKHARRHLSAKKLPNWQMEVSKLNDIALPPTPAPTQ

TIEG1(DBD) S384E/T445E, sequence (Q13118 363-480 S384E/T445E): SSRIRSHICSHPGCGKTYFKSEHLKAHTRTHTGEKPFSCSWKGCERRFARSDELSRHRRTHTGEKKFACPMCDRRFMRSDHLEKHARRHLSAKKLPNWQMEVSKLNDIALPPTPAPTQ
TIEG1(DBD) S384A, sequence (Q13118 363-480 S384A): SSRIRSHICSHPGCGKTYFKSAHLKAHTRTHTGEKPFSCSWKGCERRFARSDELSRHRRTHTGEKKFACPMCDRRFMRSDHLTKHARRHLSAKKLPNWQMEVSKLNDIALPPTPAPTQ
TIEG1(DBD) S384E, sequence (Q13118 363-480 S384E): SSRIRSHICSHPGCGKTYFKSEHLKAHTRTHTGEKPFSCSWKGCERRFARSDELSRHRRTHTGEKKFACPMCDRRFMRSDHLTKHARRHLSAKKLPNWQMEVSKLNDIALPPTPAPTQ
TIEG1(DBD), sequence (Q13118 363-480): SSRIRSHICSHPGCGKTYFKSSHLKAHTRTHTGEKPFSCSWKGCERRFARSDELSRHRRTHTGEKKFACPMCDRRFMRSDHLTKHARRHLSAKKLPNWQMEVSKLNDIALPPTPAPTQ
TIEG1(DBD) T445E, sequence (Q13118 363-480 T445E): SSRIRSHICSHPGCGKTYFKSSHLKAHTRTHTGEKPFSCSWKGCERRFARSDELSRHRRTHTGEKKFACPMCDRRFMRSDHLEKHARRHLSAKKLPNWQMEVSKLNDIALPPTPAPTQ

B1: set I TIEG1 site (dsDNA)
DNA 1: TGCAGTGAAAAGGGGGTGTGTCAGGATGC
DNA 2: TGCATCCTGACACACCCCCTTTTCACTGC
TIEG1(DBD) S384E/T445E
  binding result: no binding
TIEG1(DBD) S384E
  binding result: no binding
TIEG1(DBD)
  binding result: binds
TIEG1(DBD) T445E
  binding result: binds
TIEG1(DBD) S384A
  binding result: binds
TIEG1(DBD) T445A
  binding result: binds
TIEG1(DBD) S384A/T445A
  binding result: binds
